T1: PUF4 RNA-binding domain (Saccharomyces cerevisiae, UniProt P25339 537-888)
T1 sequence: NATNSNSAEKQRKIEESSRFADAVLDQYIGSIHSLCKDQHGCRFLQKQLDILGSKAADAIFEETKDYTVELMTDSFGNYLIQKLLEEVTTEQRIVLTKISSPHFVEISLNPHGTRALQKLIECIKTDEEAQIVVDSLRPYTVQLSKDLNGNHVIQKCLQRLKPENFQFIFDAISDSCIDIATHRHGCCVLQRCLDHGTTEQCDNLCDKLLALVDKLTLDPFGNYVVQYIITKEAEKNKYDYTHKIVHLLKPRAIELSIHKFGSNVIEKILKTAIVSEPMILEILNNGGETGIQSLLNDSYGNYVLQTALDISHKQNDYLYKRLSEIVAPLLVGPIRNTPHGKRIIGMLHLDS


Molecular target: T1, PUF4 RNA-binding domain
Experiment: Mg; RNA-MaP; 20 mM Na-HEPES pH 7.4, 30 mM KOAc, 0.75 mM MgCl2, 0.1% Tween-20, 5% glycerol, 0.1 mg/mL BSA, 2 mM DTT; 25 C; 0.0125-409.6 nM protein
Conditions: tags: N-His6-TEV cleaved; C-SNAP kept, Cy3B-labelled; label: tethered on chip by stalled RNA polymerase

| Binder | Kd |
| --- | --- |
| Ie_S4_P5E.1_K5.1_C5.1_H5.1_A5.1_[+7CTCTC]_F5.1_T5.1 (ssRNA) RNA: UUUGACAACUGAUCGUUCUUUCUUGUAUUACUCUCUUAUUCUUUCUCGAUCAGUUGUCUUU | 28.7 nM |
| Ie_S4_P5E.1_K5.1_C5.1_H5.1_A5.1_F5.1_[+9CCTCT]_T5.1 (ssRNA) RNA: UUUGACAACUGAUCGUUCUUUCUUGUAUUAUUCCUCUAUUCUUUCUCGAUCAGUUGUCUUU | 17.8 nM |
| Ie_S4_P5E.1_K5.1_C5.1_H5.1_A5.1_F5.1_[+9CTCTC]_T5.1 (ssRNA) RNA: UUUGACAACUGAUCGUUCUUUCUUGUAUUAUUCUCUCAUUCUUUCUCGAUCAGUUGUCUUU | 25 nM |
| Ie_S4_P5E.1_K5.1_C5.1_H5.1_A5.1_F5.1_[+10TCTCT]_T5.1 (ssRNA) RNA: UUUGACAACUGAUCGUUCUUUCUUGUAUUAUUAUCUCUUUCUUUCUCGAUCAGUUGUCUUU | 3.65 nM |
| Ie_S4_P5E.1_K5.1_C5.1_H5.1_A5.1_F5.1_[+8CTCTC]_T5.1 (ssRNA) RNA: UUUGACAACUGAUCGUUCUUUCUUGUAUUAUCUCUCUAUUCUUUCUCGAUCAGUUGUCUUU | 27.5 nM |
| Ie_S4_P5E.1_K5.1_C5.1_H5.1_A5.1_F5.1_[+8TTC]_T5.1 (ssRNA) RNA: UUUGACAACUGAUCGUUCUUUCUUGUAUUAUUUCUAUUCUUUCUCGAUCAGUUGUCUUU | 12.3 nM |
| Ie_S4_P5E.1_K5.1_C5.1_H5.1_A5.1_F5.1_[+10TCC]_T5.1 (ssRNA) RNA: UUUGACAACUGAUCGUUCUUUCUUGUAUUAUUAUCCUUCUUUCUCGAUCAGUUGUCUUU | 5.62 nM |
| Ie_S4_P5E.1_K5.1_C5.1_H5.1_A5.1_F5.1_[+9CTC]_T5.1 (ssRNA) RNA: UUUGACAACUGAUCGUUCUUUCUUGUAUUAUUCUCAUUCUUUCUCGAUCAGUUGUCUUU | 29.8 nM |
| Ie_S4_P5E.1_K5.1_C5.1_H5.1_A5.1_F5.1_[+9CCC]_T5.1 (ssRNA) RNA: UUUGACAACUGAUCGUUCUUUCUUGUAUUAUUCCCAUUCUUUCUCGAUCAGUUGUCUUU | 10.8 nM |
| Ie_S4_P5E.1_K5.1_C5.1_H5.1_A5.1_F5.1_[+9CCT]_T5.1 (ssRNA) RNA: UUUGACAACUGAUCGUUCUUUCUUGUAUUAUUCCUAUUCUUUCUCGAUCAGUUGUCUUU | 17.6 nM |
| Ie_S4_P5E.1_K5.1_C5.1_H5.1_A5.1_F5.1_[+8CC]_T5.1 (ssRNA) RNA: UUUGACAACUGAUCGUUCUUUCUUGUAUUAUCCUAUUCUUUCUCGAUCAGUUGUCUUU | 21 nM |
| Ie_S4_P5E.1_K5.1_C5.1_H5.1_A5.1_F5.1_[+10TT]_T5.1 (ssRNA) RNA: UUUGACAACUGAUCGUUCUUUCUUGUAUUAUUAUUUUCUUUCUCGAUCAGUUGUCUUU | 2.52 nM |
| Ie_S4_P5E.1_K5.1_C5.1_H5.1_A5.1_F5.1_[+8CT]_T5.1 (ssRNA) RNA: UUUGACAACUGAUCGUUCUUUCUUGUAUUAUCUUAUUCUUUCUCGAUCAGUUGUCUUU | 16.1 nM |
| Ie_S4_P5E.1_K5.1_C5.1_H5.1_A5.1_F5.1_[+8CTCT]_T5.1 (ssRNA) RNA: UUUGACAACUGAUCGUUCUUUCUUGUAUUAUCUCUUAUUCUUUCUCGAUCAGUUGUCUUU | 27.8 nM |
| Ie_S4_P5E.1_K5.1_C5.1_H5.1_A5.1_F5.1_[+8TTCC]_T5.1 (ssRNA) RNA: UUUGACAACUGAUCGUUCUUUCUUGUAUUAUUUCCUAUUCUUUCUCGAUCAGUUGUCUUU | 21.1 nM |
| Ie_S4_P5E.1_K5.1_C5.1_H5.1_A5.1_F5.1_[+9TCTC]_T5.1 (ssRNA) RNA: UUUGACAACUGAUCGUUCUUUCUUGUAUUAUUUCUCAUUCUUUCUCGAUCAGUUGUCUUU | 18 nM |
| Ie_S4_P5E.1_K5.1_C5.1_H5.1_A5.1_F5.1_[+8TCTC]_T5.1 (ssRNA) RNA: UUUGACAACUGAUCGUUCUUUCUUGUAUUAUUCUCUAUUCUUUCUCGAUCAGUUGUCUUU | 20.1 nM |
| Ib_S2_P3E.1_K3.1_C3.1_H3.1_[A4T]_A3.1_[A6C]_F3.1_T3.1 (ssRNA) RNA: UUUGAUUAAUAUGAUAUCGUUCUUUCUUGUUUCUAUUCUUUCUCGAUAUCAUAUUAAUCUUU | 472 nM |
| Ib_S2_P3E.1_K3.1_C3.1_H3.1_[A4T]_A3.1_[A6T]_F3.1_T3.1 (ssRNA) RNA: UUUGAUUAAUAUGAUAUCGUUCUUUCUUGUUUUUAUUCUUUCUCGAUAUCAUAUUAAUCUUU | 576 nM |
| Ie_S4_P5E.1_K5.1_C5.1_H5.1_A5.1_F5.1_[+8C]_T5.1 (ssRNA) RNA: UUUGACAACUGAUCGUUCUUUCUUGUAUUAUCUAUUCUUUCUCGAUCAGUUGUCUUU | 17.1 nM |

— PMC9352680, “A comprehensive thermodynamic model for RNA binding by the Saccharomyces cerevisiae Pumilio protein PUF4”
